Source: the supplement of paper PMC7877785
± gives the uncertainty stated by the source.

Assay: self-splicing fitness, log relative to wild type (ln ratio); higher = more splicing; Tetrahymena group I intron in knt gene, E. coli kanamycin selection, DiMSum; sequences stand for … in CUCUCU…GGAGGGAAAAGUUAUCAGGCAUGCACCUGGUAGCUAGUCUUUAAACCAAUAGAUUGCAUCGGUUUAAAAGGCAAGACCGUCAAAUUGCGGGAAAGGGGUCAACAGCCGUUCAGUACCAAGUCUCAGGGGAAACUUUGAGAUGGCCUUGCAAAGGGUAUGGUAAUAAGCUGACGGACAUGGUCCUAACCACGCAGCCAAGUCCUAAGUCAACAGAUCUUCUGUUGAUAUGGAUGCAGUUCACAGACUAAAUGUCGGUCGGGGAAGAUGUAUUCUUCUCAUAAGAUAUAGUCGGACCUCUCCUUAAUGGGAGCUAGCGGAUGAAGUGAUGCAACACUGGAGCCGCUGGGAACUAAUUUGUAUGCGAAAGUAUAUUGAUUAGUUUUGGAGUACUCGUGGUCG
Method in brief: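 The eight P1ex-region nucleotides of an intron in the knt kanamycin-resistance gene on pET-22b(+) were all randomised and the library put into E. coli BL21(DE3). Six replicate transformations were grown overnight at 37°C or 30°C on LB agar with or without 25 μg/mL kanamycin, together with 100 μg/mL carbenicillin, 50 μM IPTG and 0.2% rhamnose. Colonies were pooled and amplicon-sequenced on an Illumina HiSeq 2500. Fitness from DiMSum is the error-weighted combination of wild-type-normalised replicate fold changes, kanamycin over none.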

| Sequence | self-splicing fitness (ln) (30 °C) | self-splicing fitness (ln) (37 °C) |
| --- | --- | --- |
| CAAUAGCAAUAUUACGGAAA | -3.49 ± 0.19 | -2.83 ± 0.32 |
| CAAUAGCAAUAUUACGGCUC | -1.08 ± 0.15 | -0.901 ± 0.23 |
| CAAUAGCAAUAUUACGGGCU | -3.42 ± 0.16 | -1.4 ± 0.12 |
| CAAUAGCAAUAUUACGGGUC | -3.28 ± 0.34 | -2.4 ± 0.48 |
| CAAUAGCAAUAUUACGUAAU | -3.35 ± 0.21 | -1.92 ± 0.18 |
| CAAUAGCAAUAUUACGUCAG | -1.95 ± 0.066 | -1.12 ± 0.07 |
| CAAUAGCAAUAUUACGUGAU | -3.98 ± 0.14 | -2.5 ± 0.12 |
| CACAAGCAAUAUUACGAAAC | – | -1.91 ± 0.25 |
| CACAAGCAAUAUUACGAACC | -2.66 ± 0.47 | -1.98 ± 0.36 |
| CACAAGCAAUAUUACGACUG | -0.95 ± 0.046 | 0.337 ± 0.064 |
| CACAAGCAAUAUUACGAGGC | -3.54 ± 0.16 | -2.87 ± 0.19 |
| CACAAGCAAUAUUACGCCCG | -0.276 ± 0.12 | 0.193 ± 0.15 |
| CACAAGCAAUAUUACGCCUG | -1.87 ± 0.16 | -0.812 ± 0.19 |
| CACAAGCAAUAUUACGGAUU | -3.91 ± 0.2 | -2.61 ± 0.2 |
| CACAAGCAAUAUUACGGCCG | -0.104 ± 0.077 | 0.524 ± 0.1 |
| CACAAGCAAUAUUACGGGUA | -1.26 ± 0.07 | -0.601 ± 0.076 |
| CACAAGCAAUAUUACGGGUG | -3.99 ± 0.1 | -2.94 ± 0.11 |
| CACAAGCAAUAUUACGGUAU | -3.8 ± 0.14 | -2.35 ± 0.12 |
| CACAAGCAAUAUUACGUGAC | -4.87 ± 0.34 | -2.77 ± 0.2 |
| CACAAGCAAUAUUACGUGCC | -3.26 ± 0.14 | -2.48 ± 0.14 |
| CACAAGCAAUAUUACGUGUA | -3.53 ± 0.13 | -1.78 ± 0.093 |

| Sequence | self-splicing fitness (ln) (30 °C) | self-splicing fitness (ln) (37 °C) |
| --- | --- | --- |
| CACAAGCAAUAUUACGUUUG | -2.89 ± 0.078 | -2.14 ± 0.089 |
| CACCAGCAAUAUUACGAAUC | -4.57 ± 0.31 | -0.445 ± 0.18 |
| CACCAGCAAUAUUACGAGUC | -4.09 ± 0.19 | -1.74 ± 0.14 |
| CACCAGCAAUAUUACGAGUU | -2.42 ± 0.075 | -1.65 ± 0.087 |
| CACCAGCAAUAUUACGCAAC | -2.68 ± 0.48 | -2.85 ± 0.28 |
| CACCAGCAAUAUUACGCACU | -3.96 ± 0.21 | -1.59 ± 0.12 |
| CACCAGCAAUAUUACGCAUG | -1.29 ± 0.062 | -0.787 ± 0.07 |
| CACCAGCAAUAUUACGCGCG | -0.00123 ± 0.053 | 0.499 ± 0.069 |
| CACCAGCAAUAUUACGCGGA | -2.85 ± 0.15 | -0.595 ± 0.088 |
| CACCAGCAAUAUUACGCGGC | -2.68 ± 0.21 | -2.72 ± 0.29 |
| CACCAGCAAUAUUACGCUAC | -5.01 ± 0.45 | -2.1 ± 0.16 |
| CACCAGCAAUAUUACGGAUG | -3.11 ± 0.12 | -1.84 ± 0.12 |
| CACCAGCAAUAUUACGGAUU | -2.05 ± 0.055 | -1.36 ± 0.085 |
| CACCAGCAAUAUUACGGCGA | -1.62 ± 0.061 | -1.23 ± 0.063 |
| CACCAGCAAUAUUACGGCGC | -2.3 ± 0.11 | -1.5 ± 0.13 |
| CACCAGCAAUAUUACGUACU | -3.08 ± 0.2 | -2.21 ± 0.2 |
| CACCAGCAAUAUUACGUAGU | -3.23 ± 0.075 | -1.53 ± 0.079 |
| CACCAGCAAUAUUACGUAUA | -4.42 ± 0.24 | -2.33 ± 0.18 |
| CACCAGCAAUAUUACGUCAC | -2.9 ± 0.15 | -2.9 ± 0.3 |
| CACCAGCAAUAUUACGUCGC | -3.1 ± 0.12 | -2.28 ± 0.17 |
| CACCAGCAAUAUUACGUGCA | -4.11 ± 0.17 | -2.56 ± 0.15 |
